Experiment: observed amide hydrogen exchange rate constant kobs (stretched exponential fit, FD-normalized) (s^-1); higher = faster H/D exchange (less protection)
Details: pH 3 (pH read); temperature: 20 °C; D2O: 88%
How it was run: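 Jurkat tryptic peptides (LysC/trypsin, carbamidomethylated cysteines) were labeled in 88% D2O, pHread 3, 20 °C, quenched with 0.23% formic acid at 13 times from 18 to 93,600 s, in processing triplicates. MS1 uptake (Q-Exactive HF, HDExaminer, no back-exchange correction) was normalized to full-deuteration controls (24 h, 37 °C). Curves were fitted to a stretched single exponential with β = 0.8. The observed exchange rate constant kobs is the fitted rate.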

In order of rising “observed amide hydrogen exchange rate constant kobs” value:
1. QTVAVGVIK  0.000426
2. GDGPVQGIINFEQK  0.000693
3. DYNVTANSK  0.00116
4. LEEDISSSMTNSTAASRPPVTLR  0.00131
5. DQQEAALVDMVNDGVEDLR  0.00161
6. LGGSLADSYLDEGFLLDK  0.00175
7. LGDVYVNDAFGTAHR  0.00197
8. NMGGPYGGGNYGPGGSGGSGGYGGR  0.00223
9. EVLAGR  0.00244

Source: the supplement of paper PMC11875167
